Measurements as given in the domain aggregation screens of Martell et al. (2025).

Test: soluble fraction after stress (log2 fold change); higher = more stays soluble; pooled small domains, quantitative proteomics
Conditions: stress: pH 4
How it was run: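 Aggregation propensity here comes from the fold change in the soluble amount of each small protein domain after acid stress, measured in pooled custom libraries by high-throughput quantitative proteomics. The acid stress was pH 4. On the log2 scale, higher values mean more of the domain stayed soluble.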

Sequence | soluble fraction (log2)
HMENLVPVVVATTNIEPRTQITDAMVKVEQIPALGRNESMLEDPALVVGGYATGKIYAGQSFIQPMVSK | 0.192
HMLYKNIAKKLRFRINSDEFAIGDVLPTERQLMEEYQASRVSIRKAIDELVAIDLIEKKQGSGTYIKQKEV | -0.493
HMDRDMGSMTDFENVRDAYLTGKVWNVGDLIEANGITGIIIRKGTNYVSYNDGDGKVHKAWLHDITL | -0.98
HMLGDIYISIPRAKLQAEEYGHSFKRELAFLAVHGFYHLLGYDHQTKEEEEVMFGKQEEVLAEFDIKR | -0.245
HMKQVEVESVIGKSEEAANSILTKAGLKVNIGYKEDSSKPTDTVLSQDPAPGEKVDEGTTVTIVVNNYKKP | -0.127
HMQFYSGLEARLMDPNTPEVFDDPISLMAFLQQKNISRVELEDNLLLPYLKEMAGQPIPKAELLEIIRK | -2.19
HMAALKVAVLTVSDTRTQETDTSGAFLEGALREAGHEIADRQIVIDDVYQLRAIVSQWIADPEVEVILT | -1.31
HMYSMSAPMPGVILEIKVAPGDQVNKGDVVMVLEAMKMKNDLHAARTGTVESIDINSGEQVKYGQVLLRFV | 0.0869
HMSKSVEQRRQQIVAWVKEHGQSQVEDLAVRFATSEVTIRKDLAALSQQGLLIRQFGGAVPVPA | 0.119
HMQDLVAVPALTGLTENDAINKAKANNLIAVVSEYKTENSVEPGKVLEQDPESSTEVKKGTIIKLVVS | 0.16
HMGDTHKVPGVKGVNVEQAMDMLSRLDLKAVVIDSVYVKDKKLGTVIEQNPVEGSVVKPGRPIYLVVNSRS | -0.0241
HMVSSVAAISQMIDEKDRYTSEHSHRVAEYARLIGAHMGFAGEELDSLYRSALLHDIGKIAVPDAILNK | -0.417
HMPVEFVKISIKPGHPWENQFVRDIVSLPDLLMVLILRGEERIIPNGNTKILVGDKIVLSALSPG | -1.4
HMPKIPRLTLTETAGIMGVSQRALALAIQQGMYSWAQALPGRNKKRPIYFINAITFAKAQGIDLEEYK | -0.529
HMPQLEDLEPLDSSGMVRRDGPHLVLAVGRHRGRHLEEVRDSDPSYLHWLLSPKGIEDIQAKEDIKTYLNL | -0.302
HMDADTVGQIRVVKQILDDGRLIVVDASGNPVLVRRSSALSLTAISQGDRIIVDPSVRLAIELLPNE | 0.148
HMHLTRYLHTMIRAANLDDTLDFFVEKLGLIEAYRYSNEAGRFTLVFLSAPDDLESAQSRQAPLVEITYN | -0.329
HMNTVSVGNLGLSVRAVNALKQAGIDTYDKLQELSWEELLLIPKLGQVTAAEIYRFITSYKKG | -0.491
HMKPGTIVTGVVVDIKSDVVVVNAGLKSEGIVPIEQFRNDRGELEVAIGDEVKVALDSLENGFGETVLSRE | -1.21
HMVLMPIDALRGSSSSSEMRIAAVKFSPSKGWYFSLQERSDEGSSYYEQKVASDGSVSERVKVR | -0.69
HMFNISEKLKKYRNALGLTQTEVAEKIEITKPTYASYEKGKDISIGTLKKLADLFEVSFESFFSE | -0.336
HMVEYIENINLSEKQKFIAHEILKEIRGRAIFLRDVGLDYLNLSRKAGTLSGGEAQRIRLATQIGSA | -0.347
HMVWNVEQIKRAVDQLPDGYRVVFTLYLFEGYDHREIADILGISEGGSKSQFNRAKSKLKEILTAMS | -1.2
HMSGSIIQQAENLERQFGDTREAILGTLSDPKMSEEILETLMERYNKQHGTNWDKNTWAEEWAKANK | -0.355
HMEAPNELLVPEGARPARADRVLAAAFPEHSRTALQRAFDAGLVRRANLVLSRDTAVAGGDRIAFSLPAV | 0.0302

Sequence | soluble fraction (log2)
HMNSNISYSEFLSQVEKGTINSVEITGNSIKGIYADGGEFITFSPGDPGLIDKLQRSDIEILATPPA | -0.593
HMPRVLSSYTLTLRHQPTAEAVALVRTLLSPAGSVEVKEDGRTLVVRDELAALSRIVGALRSFDH | -0.139
HMDTITMAGERYAVSDLEKVSGDIFEKAFGFEIDPKTADAKDVLPTMPKSDVDLFKKLSGIKP | -0.0953
HMTSNKTVPYSELKGLISTGKIEYVGIGNTQIRAVSKSGAGIVTYTARRVIPDDTLIPELEKNGIAYGGI | 0.112
HMNEMEFAQRLRQFRKAKNLTQQELADRLGVSNKSVSRWESGSYPDVGTLVALARALGVTVDELLDPKA | 0.149
HMIVVTSPQVTDERIAEIVAFIEKHGVQAHVSRGTDRTVIGIIGKADPVLAEHLRSMQGVENVIKIS | -0.126
HMESLSHRQKSIVDWVQKNGYASIERMAEQFEVSAQTIRRDVIELSERRILQRHHGGASLPAG | -0.17
HMTIGLLISKARTNSGLTQAELATRAGTSQAAIARYESDRVSPSVSTLERVLRAAGEELVISSS | -0.0184
HMHANAALTPRQRLRLAQKIVDEEWTVAAAADYFRVSWPTAAKWARRYVELGEAGMADRSSRP | -0.641
HMPAFGALTLRQRDLVELIAQGLDNSQIAARLGLAEKTVRNHITMIFNKLEMENRSQVIVRARESGFGAVR | -0.228
HMKEILTNESIIQFVKDKVSEEQIIYKINNSPIDFKLDVNSMVSLAKQNVSSTIIIAMENAMNN | -0.522
HMGNHRNMSAEEEAAILAPFKARAEAGELVEISEIAKAYQSAVDHPISRGQIYFVLHRHGWRKV | -0.638
HMRVPQWLVDKIAAAGIDTHRSGPALKALAAKAGTPEQLDQAIARAKALRRRTGSTQSLNVGLLGSILEGT | -0.0808
HMVISNDEFEDYLNRATEQLVSELSSGKNPRDAVHDLALTFADQHNKSYDAYQRMADSLEARMHTL | -0.156
HMNGLNISYRMDGENVVETIVFPDATMIRTIAPNGVMTIKTIEDGSVSTSELKADYKLYKKIYESQY | -0.401
HMTPFLVRVDISDLNIRTGAGTNYSRTGQYTGKGIFTILEVKSGQGSDAGWGRLKSGAGWISLDYTTR | 0.275
HMHGLNQNKPIPIADIVNSVNNYLTSLGKKTITDNSVLSNLKKAAKYLNTAYNLVLRPDSLNMTVTLL | 0.22
HMFLSQQDINRANAASVTDMGDIIRRTFERNAAEINGLELSDAEKKDAVKQMATLATTALKTAAGAVNPY | 0.152
HMSKTQYTFKEVGSQFQLFAPSTKHTIMISADHPKYGWLTNQDQGRVINVYDTGKMTSSQDYYGLYKEVT | -0.589
HMALLSNTVDELHAGMRLDSYLFESGLYPSRSFAVKQIEAGKVFLNGDAVTKKTLVSNGDFIVYELEE | -0.506
HMQYQIITENGKQYYLYTVQKSEGFYSIGKRFEITNDEIIKANPEAALGLKLGQVLKIPVYK | -0.131
HMITIDADTGKRVYTRKEVADLVGASTQSIRLWEDAGAIPASVRDEGGYRYWYEEDLEAIKAYAS | -0.411
HMVRDGDTFVVPKMDRFARNVEDTLHLVRELTERGVIFQMGHTVYDPHDPWSKLFLTFLAAIAEA | 0.191
HMKLINEDLNNEIVFEENKVNLLVIENKKKFVQFIQEIIKQINGDEGKFSLFDINTELKIHDKIDII | -0.0802
HMQNYNLTQQEKKVLQLLVSGKSYKMIAAELNVAFDTVKSHITNIYSKLHVHSGTEAVSVAIRDKI | 0.199

Sequence | soluble fraction (log2)
HMLEAKQIQDNWESLIKLIEDNFTGERKENLLKMYTHFQDRMMFAPASSKEHFHNAFPGGYVEHVL | -0.942
HMTSLAEQAYRHIRDKLSNGAFVPGEQLVNRVLATEIGVSVIPVREAINRLATEGLVKHVPGSGAFVRQ | 0.197
HMLEINTIIGNNLKKIRQEKKLTLDELAGITGVSKGMLSQIEKGTTNPTINTIWKISNGLNVPYTYLLEDD | -0.0827
HMLPELQPGQTFSARIQQALPDNTYRALVAGKQLTLQLPEGAKAGDELELVVLDRSARVIIARQVD | 0.336
HMENTSPMTPEQSKALMAYLTKRHGDSREAYLSELSQFFGRPLSSSRELTKADVSEFLNAIN | -0.0703
HMDGIPVPDVKGTVEAEATATLKNSGFEVTKTQDFSDTVEAGKVISQNPAGGSSAASGSSVTLVISQGPN | -0.232
HMIKIEDILNVESVELSDSEYKKFLNGILINVKNLENGWAKVYSGNEFKGFGIVDKNLLKRKIVID | -0.407
HMKNYYRILGLNIDAEYEEIKAAYRILAQRHHPDKGGAAAEFRLIQEAYDILSNPLTKRNYDADLLATLN | -1.08
HMDAVTYAKGSSGETVREIQQLLLDWGYYSGEVDGIFGSRTEDAVEYFQRKNGLTVDGKVGPATLEALGIS | -0.349
HMLENIVFTNKFKNKRLDVLLVDMKLVSSRQKAVSLIMRGNVFVEEERADKPGKIIKLNQTISLKK | ≥ 0.43
HMTLTEQQITDNYKELRKIINDTFSGLRLDKLNHMYDDLEDRMVVAPASSVEHYHNSKVGGYVEHILHVI | -0.132
HMENKVLVITEEEKGKRLDVYLAAALEVSRSYAQQLIQGEDVVVNDKQVKANYRLSEGDVVQVQLD | -0.218
HMSNGFFELKTSQQDELIDLIDSHTNFVRTKIEGELITAFLKLPMDAEEFNKLLFTNGIILSHLVKRK | -1.07
HMGGKTAVVTGSLVNVRKGPGTGNALVGQVARGDELPVLGQDGDWYQIKLANGSNGWVAGWLVSLKDAVP | -0.112
HMNTGFPIILETSDAANLTVGAPIMYRGVEVGKIRNMELNSLGDRVLIHILIGHKYQHLVRQNSEFWFSS | -2.1
HMFVEEGSLKKITFDTYEFNITDNLKSLRVTYQGLLPNLFREGQGVVIEGILLEQNYIQANTVF | -0.328
HMIKYTIEELGELTGFTRRTIRYYVQEGLIDPPAGRGRGGFYYDSHVQQLLRIKSFQEKGIGITAMVSLM | -1.71
HMIEYYDDEELDVFKGRQSDNYTNKEIEQFAEVLHTMRQDEVKGWNRSLILRSINLPDSLKDEVIMLI | -2.53
HMRSDHVFTSHLARRDKYISELESLSDSARDDHIQTIKEEDEYLLKYRRTRNLFGIPLNDEMKQFEPFNY | -1.16
HMNDVLVGAIPESASGSRLDKVMPSVFPPYSRSQLQVWLKQGRILMGNGIPSPRLIVSGGEVLSLVVPELP | -0.244
HMTYFIADLIGLQVYTDSGELLGKVDDIYNSGSADIYVVKDELGKQILLPGIKDVIKQIDVDNEKIIVHLI | -1.62
HMITSELALVKLVVKGANRVEALRVAETFRARALDVTLSSFVFELTGKPSKLDAFIGLMRSLGDTEILKR | -1.02
HMNILVAISDTGEIWINKRRVDARAVQANIERLHAENPQGTVVIQADKQATTETLIKVMDASRAAGVFDVS | -0.759
HMNHSITLTERKNLLITGVKKIENFDKEEFLIETTMGFLVVKGDGLELIKLDTISGNVSIKGIVNGFTYID | 0.0772
HMLQKEVHQQIQQALRALPYHQRTAIVLYYYEGMSVKEIAQATGSMQGTVQSRLFFARKKLRPILESILKK | -2.39
